Assay: SEC

## CD95L-IZ-His (His8-TEV-Cys-IZ-CD95L (137-281), secreted form)
  percent trimers in solution (Gaussian fit of the SEC curve): occurs in a trimeric state (i.e. 62%)

Source: paper doi:10.1101/2024.10.12.618001
